T1: Abp1, P15891
T1 sequence (P15891 535-592, looked up): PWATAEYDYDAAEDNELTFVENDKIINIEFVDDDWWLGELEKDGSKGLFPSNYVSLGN

T2: Bbc1, P47068
T2 sequence (P47068 1-78, looked up): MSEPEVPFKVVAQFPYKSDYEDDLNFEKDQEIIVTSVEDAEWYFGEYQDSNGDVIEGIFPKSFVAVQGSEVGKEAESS

T3: Boi1, P38041
T3 sequence (P38041 1-86, looked up): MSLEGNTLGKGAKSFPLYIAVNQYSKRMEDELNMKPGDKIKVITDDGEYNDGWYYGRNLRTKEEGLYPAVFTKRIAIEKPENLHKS

T4: Boi2, P39969
T4 sequence (P39969 32-116, looked up): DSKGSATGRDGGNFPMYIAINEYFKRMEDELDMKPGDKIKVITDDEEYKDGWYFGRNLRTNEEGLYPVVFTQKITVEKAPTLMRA

T5: Bud14, P27637
T5 sequence (P27637 247-328, looked up): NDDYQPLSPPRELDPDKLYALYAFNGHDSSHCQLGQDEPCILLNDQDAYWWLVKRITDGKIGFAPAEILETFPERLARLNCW

T6: Bzz1-1, P38822
T6 sequence (P38822 478-572, looked up): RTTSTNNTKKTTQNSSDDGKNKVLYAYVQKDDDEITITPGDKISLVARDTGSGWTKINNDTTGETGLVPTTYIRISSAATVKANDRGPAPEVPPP

T7: Bzz1-2, P38822
T7 sequence (P38822 568-633, looked up): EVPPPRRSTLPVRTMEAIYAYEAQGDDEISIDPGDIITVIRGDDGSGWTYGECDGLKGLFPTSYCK

T8: Cdc25, P04821
T8 sequence (P04821 50-136, looked up): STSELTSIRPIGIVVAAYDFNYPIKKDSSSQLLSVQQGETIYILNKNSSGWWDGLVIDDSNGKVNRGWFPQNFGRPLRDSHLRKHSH

T9: Cyk3, Q07533
T9 sequence (Q07533 1-83, looked up): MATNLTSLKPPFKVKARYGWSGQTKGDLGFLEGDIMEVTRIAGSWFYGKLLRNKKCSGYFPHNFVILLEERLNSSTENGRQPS

T10: Fus1, P11710
T10 sequence (P11710 432-512, looked up): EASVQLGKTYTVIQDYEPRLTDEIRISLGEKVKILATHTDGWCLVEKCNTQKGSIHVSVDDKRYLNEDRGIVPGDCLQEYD

T11: Hof1, Q05080
T11 sequence (Q05080 590-669, looked up): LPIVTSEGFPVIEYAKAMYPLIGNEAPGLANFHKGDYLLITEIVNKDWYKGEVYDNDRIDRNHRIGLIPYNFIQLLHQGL

T12: Hse1, P38753
T12 sequence (P38753 208-285, looked up): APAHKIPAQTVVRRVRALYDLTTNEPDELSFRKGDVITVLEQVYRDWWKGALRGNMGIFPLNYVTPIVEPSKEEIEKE

T13: Lsb1, P53281
T13 sequence (P53281 45-122, looked up): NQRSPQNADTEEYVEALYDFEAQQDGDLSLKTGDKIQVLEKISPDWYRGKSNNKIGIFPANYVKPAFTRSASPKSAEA

T14: Lsb3, P43603
T14 sequence (P43603 385-451, looked up): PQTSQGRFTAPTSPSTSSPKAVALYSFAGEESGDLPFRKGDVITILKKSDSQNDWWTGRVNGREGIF

T15: Lsb4, P32793
T15 sequence (P32793 402-468, looked up): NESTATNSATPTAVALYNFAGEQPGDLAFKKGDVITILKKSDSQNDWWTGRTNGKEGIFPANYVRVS

T16: Myo5, Q04439
T16 sequence (Q04439 1072-1160, looked up): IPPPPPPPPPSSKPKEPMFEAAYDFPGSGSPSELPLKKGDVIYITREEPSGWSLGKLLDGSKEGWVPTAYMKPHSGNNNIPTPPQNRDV

T17: Nbp2, Q12163
T17 sequence (Q12163 103-180, looked up): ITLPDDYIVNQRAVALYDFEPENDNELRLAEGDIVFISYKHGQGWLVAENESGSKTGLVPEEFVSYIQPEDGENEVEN

T18: Pex13, P80667
T18 sequence (P80667 295-386, looked up): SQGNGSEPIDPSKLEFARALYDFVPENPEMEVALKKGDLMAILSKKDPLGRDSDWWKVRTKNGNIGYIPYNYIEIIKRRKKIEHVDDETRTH

T19: Pin3, Q06449
T19 sequence (Q06449 53-122, looked up): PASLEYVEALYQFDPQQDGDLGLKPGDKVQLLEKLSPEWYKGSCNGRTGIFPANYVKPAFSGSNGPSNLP

T20: Sla1-2, P32790
T20 sequence (P32790 60-140, looked up): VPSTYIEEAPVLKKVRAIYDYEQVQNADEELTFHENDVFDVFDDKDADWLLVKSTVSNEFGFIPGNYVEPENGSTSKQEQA

T21: Sla1-3, P32790
T21 sequence (P32790 344-424, looked up): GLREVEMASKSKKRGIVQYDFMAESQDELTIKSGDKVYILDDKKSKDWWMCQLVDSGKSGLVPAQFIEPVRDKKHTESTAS


Target: T1, Abp1, P15891
Assay: SPOT array
Conditions: median of control spots 935

Binder | SPOT intensity
NSMRPPLLIPAATTK | 87
PSTMDFPKLPSFQNS | 99
PKMLPIPSKPTLFDL | 173

Target: T2, Bbc1, P47068
Assay: SPOT array
Conditions: median of control spots 796

Binder | SPOT intensity
NSMRPPLLIPAATTK | 0
PSTMDFPKLPSFQNS | 0
PKMLPIPSKPTLFDL | 0

Target: Bem1-1, P29366
Assay: SPOT array
Conditions: median of control spots 4282

Sequence of Bem1-1, P29366 (P29366 55-141): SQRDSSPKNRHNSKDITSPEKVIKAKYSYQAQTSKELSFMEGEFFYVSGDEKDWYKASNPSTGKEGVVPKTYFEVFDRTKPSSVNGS

Binder | SPOT intensity
NSMRPPLLIPAATTK | 5
PSTMDFPKLPSFQNS | 0
PKMLPIPSKPTLFDL | 0

Target: Bem1-2, P29366
Assay: SPOT array
Conditions: median of control spots 4347

Sequence of Bem1-2, P29366 (P29366 139-227): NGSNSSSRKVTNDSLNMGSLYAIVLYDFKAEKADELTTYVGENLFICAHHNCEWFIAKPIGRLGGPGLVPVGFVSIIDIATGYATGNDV

Binder | SPOT intensity
NSMRPPLLIPAATTK | 6
PSTMDFPKLPSFQNS | 8
PKMLPIPSKPTLFDL | 0

Target: T3, Boi1, P38041
Assay: SPOT array
Conditions: median of control spots 1162

Binder | SPOT intensity
NSMRPPLLIPAATTK | 0
PSTMDFPKLPSFQNS | 0
PKMLPIPSKPTLFDL | 0

Target: T4, Boi2, P39969
Assay: SPOT array
Conditions: median of control spots 1161

Binder | SPOT intensity
NSMRPPLLIPAATTK | 0
PSTMDFPKLPSFQNS | 0
PKMLPIPSKPTLFDL | 0

Target: T5, Bud14, P27637
Assay: SPOT array
Conditions: median of control spots 956

Binder | SPOT intensity
NSMRPPLLIPAATTK | 13
PSTMDFPKLPSFQNS | 1
PKMLPIPSKPTLFDL | 0

Target: T6, Bzz1-1, P38822
Assay: SPOT array
Conditions: median of control spots 4446

Binder | SPOT intensity
NSMRPPLLIPAATTK | 0
PSTMDFPKLPSFQNS | 0
PKMLPIPSKPTLFDL | 0

Target: T7, Bzz1-2, P38822
Assay: SPOT array
Conditions: median of control spots 4538

Binder | SPOT intensity
NSMRPPLLIPAATTK | 0
PSTMDFPKLPSFQNS | 0
PKMLPIPSKPTLFDL | 0

Target: T8, Cdc25, P04821
Assay: SPOT array
Conditions: median of control spots 969

Binder | SPOT intensity
NSMRPPLLIPAATTK | 37
PSTMDFPKLPSFQNS | 0
PKMLPIPSKPTLFDL | 0

Target: T9, Cyk3, Q07533
Assay: SPOT array
Conditions: median of control spots 1451

Binder | SPOT intensity
NSMRPPLLIPAATTK | 0
PSTMDFPKLPSFQNS | 2
PKMLPIPSKPTLFDL | 0

Target: T10, Fus1, P11710
Assay: SPOT array
Conditions: median of control spots 1200

Binder | SPOT intensity
NSMRPPLLIPAATTK | 0
PSTMDFPKLPSFQNS | 0
PKMLPIPSKPTLFDL | 0

Target: GST
Assay: SPOT array
Conditions: median of control spots 978

Binder | SPOT intensity
NSMRPPLLIPAATTK | 1
PSTMDFPKLPSFQNS | 0
PKMLPIPSKPTLFDL | 1

Target: T11, Hof1, Q05080
Assay: SPOT array
Conditions: median of control spots 4086

Binder | SPOT intensity
NSMRPPLLIPAATTK | 2
PSTMDFPKLPSFQNS | 307
PKMLPIPSKPTLFDL | 0

Target: T12, Hse1, P38753
Assay: SPOT array
Conditions: median of control spots 1727

Binder | SPOT intensity
NSMRPPLLIPAATTK | 5
PSTMDFPKLPSFQNS | 0
PKMLPIPSKPTLFDL | 0

Target: T13, Lsb1, P53281
Assay: SPOT array
Conditions: median of control spots 388

Binder | SPOT intensity
NSMRPPLLIPAATTK | 387
PSTMDFPKLPSFQNS | 44
PKMLPIPSKPTLFDL | 2

Target: T14, Lsb3, P43603
Assay: SPOT array
Conditions: median of control spots 406

Binder | SPOT intensity
NSMRPPLLIPAATTK | 25
PSTMDFPKLPSFQNS | 21
PKMLPIPSKPTLFDL | 15

Target: T15, Lsb4, P32793
Assay: SPOT array
Conditions: median of control spots 397

Binder | SPOT intensity
NSMRPPLLIPAATTK | 87
PSTMDFPKLPSFQNS | 67
PKMLPIPSKPTLFDL | 42

Target: Myo3, P36006
Assay: SPOT array
Conditions: median of control spots 468

Binder | SPOT intensity
NSMRPPLLIPAATTK | 40
PSTMDFPKLPSFQNS | 51
PKMLPIPSKPTLFDL | 36

Target: T16, Myo5, Q04439
Assay: SPOT array
Conditions: median of control spots 471

Binder | SPOT intensity
NSMRPPLLIPAATTK | 65
PSTMDFPKLPSFQNS | 77
PKMLPIPSKPTLFDL | 52

Target: T17, Nbp2, Q12163
Assay: SPOT array
Conditions: median of control spots 357

Binder | SPOT intensity
NSMRPPLLIPAATTK | 9
PSTMDFPKLPSFQNS | 57
PKMLPIPSKPTLFDL | 19

Target: T18, Pex13, P80667
Assay: SPOT array
Conditions: median of control spots 1341

Binder | SPOT intensity
NSMRPPLLIPAATTK | 47
PSTMDFPKLPSFQNS | 35
PKMLPIPSKPTLFDL | 52

Target: T19, Pin3, Q06449
Assay: SPOT array
Conditions: median of control spots 2171

Binder | SPOT intensity
NSMRPPLLIPAATTK | 40
PSTMDFPKLPSFQNS | 54
PKMLPIPSKPTLFDL | 69

Target: Rvs167, P39743
Assay: SPOT array
Conditions: median of control spots 2707

Sequence of Rvs167, P39743 (P39743 419-482): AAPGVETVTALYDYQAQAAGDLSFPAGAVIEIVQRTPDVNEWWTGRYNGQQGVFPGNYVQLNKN

Binder | SPOT intensity
NSMRPPLLIPAATTK | 0
PSTMDFPKLPSFQNS | 2
PKMLPIPSKPTLFDL | 0

Target: Sho1, P40073
Assay: SPOT array
Conditions: median of control spots 1148

Sequence of Sho1, P40073 (P40073 287-367): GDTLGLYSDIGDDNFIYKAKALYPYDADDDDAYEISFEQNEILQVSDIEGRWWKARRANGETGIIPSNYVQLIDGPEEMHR

Binder | SPOT intensity
NSMRPPLLIPAATTK | 39
PSTMDFPKLPSFQNS | 25
PKMLPIPSKPTLFDL | 164

Target: T20, Sla1-2, P32790
Assay: SPOT array
Conditions: median of control spots 712

Binder | SPOT intensity
NSMRPPLLIPAATTK | 6
PSTMDFPKLPSFQNS | 7
PKMLPIPSKPTLFDL | 3

Target: T21, Sla1-3, P32790
Assay: SPOT array
Conditions: median of control spots 5475

Binder | SPOT intensity
NSMRPPLLIPAATTK | 0
PSTMDFPKLPSFQNS | 0
PKMLPIPSKPTLFDL | 0

— paper PMC2756588
